Patent US5866680
Like-named read-outs stand apart in the source and are kept apart here.

Tests used:
[1] = target: U1 snRNP-A 1-142 (Homo sapiens) (UniProt P09012); experiment: EMSA
[2] = target: U2 snRNP-B" 1-109 (Homo sapiens) (UniProt P08579); experiment: EMSA
[3] = target: A/B".1A pentamer mutant 1-142 L44V,V45A,S46L,R47K,S48T (Homo sapiens) (UniProt P09012); experiment: EMSA
[4] = system: U2 snRNP-B" + U2 snRNP-A' (Homo sapiens); experiment: pulldown; settings: A' stimulates B" binding to U2 about 100-fold
[5] = legend says full-length U2, text says U2 stem-loop IV

Sequence of UniProt P08579 (P08579 1-109): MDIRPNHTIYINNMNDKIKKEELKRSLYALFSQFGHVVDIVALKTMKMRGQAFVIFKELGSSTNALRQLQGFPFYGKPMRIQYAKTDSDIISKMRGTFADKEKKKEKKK

## U1SL2 (U1 stem-loop II)
[1]; earlier estimate 80 nM quoted, 10 mM MgCl2, 150 mM NaCl
  Kd: 30 nM
[2]
  Kd: 800 nM
[3]
  Kd: 70 nM

## human U2 RNA
[1]; [5]
  Kd: > 10000 nM
[2]; [5]
  Kd: 400 nM
[3]; [5]
  Kd: 900 nM
[4]
  binding signal: 100 fold
